Source: article PMC10215022

Assays:
[1] = biological target: SARS-CoV-2 Omicron (B.1.1.529) spike protein, plate-bound (MSD V-PLEX) (SARS-CoV-2 Omicron (B.1.1.529)) (UniProt P0DTC2)
[2] = biological target: SARS-CoV-2 Omicron (B.1.1.529) spike protein RBD, His-tagged (SARS-CoV-2 Omicron (B.1.1.529)) (UniProt P0DTC2); test: SPR

Substance	IC50 [1]	Kd [2]
REGEN-COV mAb cocktail (casirivimab and imdevimab at 1:1 molar ratio)	0.013 µM	–
casirivimab (REGN10933) (antibody)	–	1.2 µM
